This passage reports Kd results from patent US20260055205A1 (published 2026).

In the experiment the target is T1, human CD3 epsilon (human, UniProt P07766 23-126, limits assumed).
T1 construct: also called huCD3e
The experiment is described as follows: Octet, crude lysate. The source says:
To achieve this, Pool 1 was created, which included 74 paTCE molecules, each containing PSMA.5 and one of the 74 CD3.23 mutation variants. Single mutations were chosen based on analyses including CD3.23 PTE score analysis (using internal PTE algorithm v12) and structural analysis. Structural considerations included: possible contact disruption, anticipated steric clashes, side chain charge maintenance and possible pockets filling. Stability and affinity of the individually expressed molecules in the form of crude lysate was evaluated by Octet (ForteBio).

T1 sequence (P07766 23-126 limits assumed): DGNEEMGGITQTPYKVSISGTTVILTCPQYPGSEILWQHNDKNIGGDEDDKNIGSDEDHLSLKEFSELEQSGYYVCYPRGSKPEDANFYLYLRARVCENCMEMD

B1: CD3.81 (bispecific antibody, V domains shown)
VH: EVQLLESGGGIVQPGGSLKLSCAASGFTFNTYAMNWVRQAPGKGLEWVARIRSKYNNFATYYADSVKDRFTISRDDSKNTVYLQMNNLKTEDTAVYYCVRHENFGNSYVSWFAHWGQGTLVTVSS
VL: ELVVTQEPSLTVSPGGTVTLTCRSSNGAVTSSNYANWVQQKPGQAPRGLIGGTNKRAPGTPARFSGSLLGGKAALTLSGVQPEDEAVYYCALWYPNLWVFGGGTKLTVL
notes: paTCE with PSMA.5; also called AC3410; Y55F
Regarding B1, the affinity, expressed as Kd, was 6.1 nM.

B2: CD3.96 (bispecific antibody, V domains shown)
VH: EVQLLESGGGIVQPGGSLKLSCAASGFTFNTYAMNWVRQAPGKGLEWVARIRSKYNNYATYYADSVKDRFTISRDDSKNTVDLQMNNLKTEDTAVYYCVRHENFGNSYVSWFAHWGQGTLVTVSS
VL: ELVVTQEPSLTVSPGGTVTLTCRSSNGAVTSSNYANWVQQKPGQAPRGLIGGTNKRAPGTPARFSGSLLGGKAALTLSGVQPEDEAVYYCALWYPNLWVFGGGTKLTVL
notes: paTCE with PSMA.5; also called AC3425; Y79D
B2 gave a Kd of 9.8 nM.

B3: CD3.82 (bispecific antibody, V domains shown)
VH: EVQLLESGGGIVQPGGSLKLSCAASGFTFNTYAMNWVRQAPGKGLEWVARIRSKYNNWATYYADSVKDRFTISRDDSKNTVYLQMNNLKTEDTAVYYCVRHENFGNSYVSWFAHWGQGTLVTVSS
VL: ELVVTQEPSLTVSPGGTVTLTCRSSNGAVTSSNYANWVQQKPGQAPRGLIGGTNKRAPGTPARFSGSLLGGKAALTLSGVQPEDEAVYYCALWYPNLWVFGGGTKLTVL
notes: paTCE with PSMA.5; also called AC3411; Y55W
B3 returned a Kd of 7.8 nM. The Kd values of the last two molecules are within 1.5-fold of each other.

B4: CD3.87 (bispecific antibody, V domains shown)
VH: EVQLLESGGGIVQPGGSLKLSCAASGFTFNTYAMNWVRQAPGKGLEWVARIRSKYNNYATTYADSVKDRFTISRDDSKNTVYLQMNNLKTEDTAVYYCVRHENFGNSYVSWFAHWGQGTLVTVSS
VL: ELVVTQEPSLTVSPGGTVTLTCRSSNGAVTSSNYANWVQQKPGQAPRGLIGGTNKRAPGTPARFSGSLLGGKAALTLSGVQPEDEAVYYCALWYPNLWVFGGGTKLTVL
notes: paTCE with PSMA.5; also called AC3416; Y58T
B4 displayed a Kd of 17.9 nM.

B5: CD3.85 (bispecific antibody, V domains shown)
VH: EVQLLESGGGIVQPGGSLKLSCAASGFTFNTYAMNWVRQAPGKGLEWVARIRSKYNNYATDYADSVKDRFTISRDDSKNTVYLQMNNLKTEDTAVYYCVRHENFGNSYVSWFAHWGQGTLVTVSS
VL: ELVVTQEPSLTVSPGGTVTLTCRSSNGAVTSSNYANWVQQKPGQAPRGLIGGTNKRAPGTPARFSGSLLGGKAALTLSGVQPEDEAVYYCALWYPNLWVFGGGTKLTVL
notes: paTCE with PSMA.5; also called AC3414; Y58D
As for B5, the Kd was 939 nM. This Kd lies about 52-fold higher than the previous one.

B6: CD3.89 (bispecific antibody, V domains shown)
VH: EVQLLESGGGIVQPGGSLKLSCAASGFTFNTYAMNWVRQAPGKGLEWVARIRSKYNNYATYEADSVKDRFTISRDDSKNTVYLQMNNLKTEDTAVYYCVRHENFGNSYVSWFAHWGQGTLVTVSS
VL: ELVVTQEPSLTVSPGGTVTLTCRSSNGAVTSSNYANWVQQKPGQAPRGLIGGTNKRAPGTPARFSGSLLGGKAALTLSGVQPEDEAVYYCALWYPNLWVFGGGTKLTVL
notes: paTCE with PSMA.5; also called AC3418; Y59E
With B6, binding was characterised by a dissociation constant (Kd) of 9.7 nM.

B7: CD3.100 (bispecific antibody, V domains shown)
VH: EVQLLESGGGIVQPGGSLKLSCAASGFTFNTYAMNWVRQAPGKGLEWVARIRSKYNNYATYYADSVKDRFTISRDDSKNTVYLQMNQLKTEDTAVYYCVRHENFGNSYVSWFAHWGQGTLVTVSS
VL: ELVVTQEPSLTVSPGGTVTLTCRSSNGAVTSSNYANWVQQKPGQAPRGLIGGTNKRAPGTPARFSGSLLGGKAALTLSGVQPEDEAVYYCALWYPNLWVFGGGTKLTVL
notes: paTCE with PSMA.5; also called AC3429; N82bQ
Regarding B7, the affinity, expressed as Kd, was 7.1 nM.

B8: CD3.86 (bispecific antibody, V domains shown)
VH: EVQLLESGGGIVQPGGSLKLSCAASGFTFNTYAMNWVRQAPGKGLEWVARIRSKYNNYATEYADSVKDRFTISRDDSKNTVYLQMNNLKTEDTAVYYCVRHENFGNSYVSWFAHWGQGTLVTVSS
VL: ELVVTQEPSLTVSPGGTVTLTCRSSNGAVTSSNYANWVQQKPGQAPRGLIGGTNKRAPGTPARFSGSLLGGKAALTLSGVQPEDEAVYYCALWYPNLWVFGGGTKLTVL
notes: paTCE with PSMA.5; also called AC3415; Y58E
Molecule B8 showed a Kd of 183 nM.

B9: CD3.90 (bispecific antibody, V domains shown)
VH: EVQLLESGGGIVQPGGSLKLSCAASGFTFNTYAMNWVRQAPGKGLEWVARIRSKYNNYATYQADSVKDRFTISRDDSKNTVYLQMNNLKTEDTAVYYCVRHENFGNSYVSWFAHWGQGTLVTVSS
VL: ELVVTQEPSLTVSPGGTVTLTCRSSNGAVTSSNYANWVQQKPGQAPRGLIGGTNKRAPGTPARFSGSLLGGKAALTLSGVQPEDEAVYYCALWYPNLWVFGGGTKLTVL
notes: paTCE with PSMA.5; also called AC3419; Y59Q
The molecule B9 yielded a Kd of 7.2 nM.

B10: CD3.94 (bispecific antibody, V domains shown)
VH: EVQLLESGGGIVQPGGSLKLSCAASGFTFNTYAMNWVRQAPGKGLEWVARIRSKYNNYATYYPDSVKDRFTISRDDSKNTVYLQMNNLKTEDTAVYYCVRHENFGNSYVSWFAHWGQGTLVTVSS
VL: ELVVTQEPSLTVSPGGTVTLTCRSSNGAVTSSNYANWVQQKPGQAPRGLIGGTNKRAPGTPARFSGSLLGGKAALTLSGVQPEDEAVYYCALWYPNLWVFGGGTKLTVL
notes: paTCE with PSMA.5; also called AC3423; A60P
Turning to B10, the affinity, expressed as Kd, was 8.2 nM.

B11: CD3.83 (bispecific antibody, V domains shown)
VH: EVQLLESGGGIVQPGGSLKLSCAASGFTFNTYAMNWVRQAPGKGLEWVARIRSKYNNYGTYYADSVKDRFTISRDDSKNTVYLQMNNLKTEDTAVYYCVRHENFGNSYVSWFAHWGQGTLVTVSS
VL: ELVVTQEPSLTVSPGGTVTLTCRSSNGAVTSSNYANWVQQKPGQAPRGLIGGTNKRAPGTPARFSGSLLGGKAALTLSGVQPEDEAVYYCALWYPNLWVFGGGTKLTVL
notes: paTCE with PSMA.5; also called AC3412; A56G
The molecule B11 had a Kd of 8.2 nM.

B12: CD3.99 (bispecific antibody, V domains shown)
VH: EVQLLESGGGIVQPGGSLKLSCAASGFTFNTYAMNWVRQAPGKGLEWVARIRSKYNNYATYYADSVKDRFTISRDDSKNTVYLQMNELKTEDTAVYYCVRHENFGNSYVSWFAHWGQGTLVTVSS
VL: ELVVTQEPSLTVSPGGTVTLTCRSSNGAVTSSNYANWVQQKPGQAPRGLIGGTNKRAPGTPARFSGSLLGGKAALTLSGVQPEDEAVYYCALWYPNLWVFGGGTKLTVL
notes: paTCE with PSMA.5; also called AC3428; N82bE
B12 had a dissociation constant (Kd) of 5.9 nM.

B13: CD3.97 (bispecific antibody, V domains shown)
VH: EVQLLESGGGIVQPGGSLKLSCAASGFTFNTYAMNWVRQAPGKGLEWVARIRSKYNNYATYYADSVKDRFTISRDDSKNTVGLQMNNLKTEDTAVYYCVRHENFGNSYVSWFAHWGQGTLVTVSS
VL: ELVVTQEPSLTVSPGGTVTLTCRSSNGAVTSSNYANWVQQKPGQAPRGLIGGTNKRAPGTPARFSGSLLGGKAALTLSGVQPEDEAVYYCALWYPNLWVFGGGTKLTVL
notes: paTCE with PSMA.5; also called AC3426; Y79G
B13 returned a Kd of 121 nM.

B14: CD3.98 (bispecific antibody, V domains shown)
VH: EVQLLESGGGIVQPGGSLKLSCAASGFTFNTYAMNWVRQAPGKGLEWVARIRSKYNNYATYYADSVKDRFTISRDDSKNTVSLQMNNLKTEDTAVYYCVRHENFGNSYVSWFAHWGQGTLVTVSS
VL: ELVVTQEPSLTVSPGGTVTLTCRSSNGAVTSSNYANWVQQKPGQAPRGLIGGTNKRAPGTPARFSGSLLGGKAALTLSGVQPEDEAVYYCALWYPNLWVFGGGTKLTVL
notes: paTCE with PSMA.5; also called AC3427; Y79S
B14 showed a Kd of 9.6 nM.

B15: CD3.88 (bispecific antibody, V domains shown)
VH: EVQLLESGGGIVQPGGSLKLSCAASGFTFNTYAMNWVRQAPGKGLEWVARIRSKYNNYATYDADSVKDRFTISRDDSKNTVYLQMNNLKTEDTAVYYCVRHENFGNSYVSWFAHWGQGTLVTVSS
VL: ELVVTQEPSLTVSPGGTVTLTCRSSNGAVTSSNYANWVQQKPGQAPRGLIGGTNKRAPGTPARFSGSLLGGKAALTLSGVQPEDEAVYYCALWYPNLWVFGGGTKLTVL
notes: paTCE with PSMA.5; also called AC3417; Y59D
B15 yielded a Kd of 63.2 nM.

B16: CD3.95 (bispecific antibody, V domains shown)
VH: EVQLLESGGGIVQPGGSLKLSCAASGFTFNTYAMNWVRQAPGKGLEWVARIRSKYNNYATYYADSVKGRFTISRDDSKNTVYLQMNNLKTEDTAVYYCVRHENFGNSYVSWFAHWGQGTLVTVSS
VL: ELVVTQEPSLTVSPGGTVTLTCRSSNGAVTSSNYANWVQQKPGQAPRGLIGGTNKRAPGTPARFSGSLLGGKAALTLSGVQPEDEAVYYCALWYPNLWVFGGGTKLTVL
notes: paTCE with PSMA.5; also called AC3424; D65G
Regarding B16, the Kd was 5.4 nM.

B17: CD3.92 (bispecific antibody, V domains shown)
VH: EVQLLESGGGIVQPGGSLKLSCAASGFTFNTYAMNWVRQAPGKGLEWVARIRSKYNNYATYWADSVKDRFTISRDDSKNTVYLQMNNLKTEDTAVYYCVRHENFGNSYVSWFAHWGQGTLVTVSS
VL: ELVVTQEPSLTVSPGGTVTLTCRSSNGAVTSSNYANWVQQKPGQAPRGLIGGTNKRAPGTPARFSGSLLGGKAALTLSGVQPEDEAVYYCALWYPNLWVFGGGTKLTVL
notes: paTCE with PSMA.5; also called AC3421; Y59W
The molecule B17 yielded a Kd of 37.2 nM.

B18: CD3.91 (bispecific antibody, V domains shown)
VH: EVQLLESGGGIVQPGGSLKLSCAASGFTFNTYAMNWVRQAPGKGLEWVARIRSKYNNYATYGADSVKDRFTISRDDSKNTVYLQMNNLKTEDTAVYYCVRHENFGNSYVSWFAHWGQGTLVTVSS
VL: ELVVTQEPSLTVSPGGTVTLTCRSSNGAVTSSNYANWVQQKPGQAPRGLIGGTNKRAPGTPARFSGSLLGGKAALTLSGVQPEDEAVYYCALWYPNLWVFGGGTKLTVL
notes: paTCE with PSMA.5; also called AC3420; Y59G
B18: binding was put at a Kd of 8.3 nM.

B19: CD3.84 (bispecific antibody, V domains shown)
VH: EVQLLESGGGIVQPGGSLKLSCAASGFTFNTYAMNWVRQAPGKGLEWVARIRSKYNNYTTYYADSVKDRFTISRDDSKNTVYLQMNNLKTEDTAVYYCVRHENFGNSYVSWFAHWGQGTLVTVSS
VL: ELVVTQEPSLTVSPGGTVTLTCRSSNGAVTSSNYANWVQQKPGQAPRGLIGGTNKRAPGTPARFSGSLLGGKAALTLSGVQPEDEAVYYCALWYPNLWVFGGGTKLTVL
notes: paTCE with PSMA.5; also called AC3413; A56T
As for B19, the affinity, expressed as Kd, was 10.7 nM.

B20: CD3.93 (bispecific antibody, V domains shown)
VH: EVQLLESGGGIVQPGGSLKLSCAASGFTFNTYAMNWVRQAPGKGLEWVARIRSKYNNYATYYKDSVKDRFTISRDDSKNTVYLQMNNLKTEDTAVYYCVRHENFGNSYVSWFAHWGQGTLVTVSS
VL: ELVVTQEPSLTVSPGGTVTLTCRSSNGAVTSSNYANWVQQKPGQAPRGLIGGTNKRAPGTPARFSGSLLGGKAALTLSGVQPEDEAVYYCALWYPNLWVFGGGTKLTVL
notes: paTCE with PSMA.5; also called AC3422; A60K
Regarding B20, the affinity, expressed as Kd, was 8 nM.
